Key:
[1] = biological target: T1, human recombinant TLR4 protein (without MD2) (human, UniProt O00206 24-631); assay: SPR; Biacore T-200; TLR2, TLR4 and integrin αvβ3 immobilised on a CM5 chip by amine coupling; CCN1 as analyte at 25 µl per min, 25 °C, phosphate buffer with 350 mM NaCl, 0.5 mM CaCl2, 0.5 mM MgCl2, 10 µg per ml BSA; global fit to 1:1 Langmuir model, KD = kd/ka; settings: both partners purified
T1 construct: also called hTLR4; source: bought: R&D systems

[2] = biological target: T2, human recombinant TLR2 protein (human, UniProt O60603 21-588); assay: as above; settings: both partners purified
T2 construct: Toll-like receptor 2, human, recombinant protein from R&D systems; also called hTLR2; source: bought: R&D systems
T2 sequence (O60603 21-588): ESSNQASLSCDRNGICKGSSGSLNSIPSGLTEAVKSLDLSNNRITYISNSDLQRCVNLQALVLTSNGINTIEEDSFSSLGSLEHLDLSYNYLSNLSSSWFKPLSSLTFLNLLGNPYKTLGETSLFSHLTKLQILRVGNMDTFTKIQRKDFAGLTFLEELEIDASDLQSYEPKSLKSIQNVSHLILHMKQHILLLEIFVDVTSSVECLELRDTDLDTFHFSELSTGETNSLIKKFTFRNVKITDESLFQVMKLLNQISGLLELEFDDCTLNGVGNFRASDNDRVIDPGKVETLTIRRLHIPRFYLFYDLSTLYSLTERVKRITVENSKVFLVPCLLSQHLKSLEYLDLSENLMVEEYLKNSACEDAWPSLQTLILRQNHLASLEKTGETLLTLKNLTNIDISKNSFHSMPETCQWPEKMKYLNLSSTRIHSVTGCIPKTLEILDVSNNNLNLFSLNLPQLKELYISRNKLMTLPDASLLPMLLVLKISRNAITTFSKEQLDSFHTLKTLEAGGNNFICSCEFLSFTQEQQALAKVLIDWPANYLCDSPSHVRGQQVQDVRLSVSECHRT

T1 sequence (O00206 24-631): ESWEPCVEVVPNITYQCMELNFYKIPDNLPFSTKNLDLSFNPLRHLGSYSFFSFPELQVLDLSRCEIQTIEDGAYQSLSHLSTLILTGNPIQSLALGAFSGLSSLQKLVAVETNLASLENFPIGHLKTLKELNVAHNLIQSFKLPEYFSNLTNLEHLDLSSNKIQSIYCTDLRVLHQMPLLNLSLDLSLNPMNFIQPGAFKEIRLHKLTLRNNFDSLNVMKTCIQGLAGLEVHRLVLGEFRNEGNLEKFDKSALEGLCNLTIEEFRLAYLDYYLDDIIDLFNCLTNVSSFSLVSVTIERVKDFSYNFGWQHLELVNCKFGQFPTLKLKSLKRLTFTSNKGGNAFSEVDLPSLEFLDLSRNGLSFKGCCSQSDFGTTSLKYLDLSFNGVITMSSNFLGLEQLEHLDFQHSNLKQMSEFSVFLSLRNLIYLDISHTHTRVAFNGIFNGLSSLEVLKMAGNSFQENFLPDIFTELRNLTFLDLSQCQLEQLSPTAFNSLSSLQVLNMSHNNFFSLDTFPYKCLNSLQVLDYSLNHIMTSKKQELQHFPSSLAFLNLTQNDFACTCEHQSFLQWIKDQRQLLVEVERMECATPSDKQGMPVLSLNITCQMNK

- Kd [1]: 291 nM
- Kd [2]: 227 nM
B1: CCN1-WT (recombinant matricellular protein CCN1) (natural protein, UniProt P18406 25-379, looked up)
chain: TCPAACHCPLEAPKCAPGVGLVRDGCGCCKVCAKQLNEDCSKTQPCDHTKGLECNFGASSTALKGICRAQSEGRPCEYNSRIYQNGESFQPNCKHQCTCIDGAVGCIPLCPQELSLPNLGCPNPRLVKVSGQCCEEWVCDEDSIKDSLDDQDDLLGLDASEVELTRNNELIAIGKGSSLKRLPVFGTEPRVLFNPLHAHGQKCIVQTTSWSQCSKSCGTGISTRVTNDNPECRLVKETRICEVRPCGQPVYSSLKKGKKCSKTKKSPEPVRFTYAGCSSVKKYRPKYCGSCVDGRCCTPLQTRTVKMRFRCEDGEMFSKNVMMIQSCKCNYNCPHPNEASFRLYSLFNDIHKFRD
notes: CCN1 (CYR61), 40 kDa matricellular protein with IGFBP, vWC, TSR and CT domains; also called CYR61; Cyr61

From article PMC7060279, “CCN1 is an opsonin for bacterial clearance and a direct activator of Toll-like receptor signaling” (Nature Communications, 2020)
